# According to patent US5156956A, “Transgultaminase” (Ajinomoto Co., Inc., priority 1987, dated 1992):
# B1: BTGase: microorganism-derived transglutaminase; in Examples 4-11 the freeze dried product prepared in Example 1 (S. mobaraense, i.e. BTG-1) (protein, UniProt P81453 77-407, looked up)
# Protein-glutamine …: DSDDRVTPPAEPLDRMPDPYRPSYGRAETVVNNYIRKWQQVYSHRDGRKQQMTEEQREWLSYGCVGVTWVNSGQYPTNRLAFASFDEDRFKNELKNGRPRSGETRAEFEGRVAKESFDEEKGFQRAREVASVMNRALENAHDESAYLDNLKKELANGNDALRNEDARSPFYSALRNTPSFKERNGGNHDPSRMKAVIYSKHFWSGQDRSSSADKRKYGDPDAFRPAPGTGLVDMSRDRNIPRSPTSPGEGFVNFDYGWFGAQTEADADKTVWTHGNHYHAPNGSLGAMHVYESKFRNWSEGYSDFDRGAYVITFIPKSWNTAPDKVKQGWP
# How the values were obtained:
# [1] = Measurement of BTGase activity (hydroxamate method); type: biochemical; details: freeze dried product prepared in Example 1
# Method: Measurement of the activity of BTGase is carried out by performing a reaction using benzyloxycarbonyl-L-glutaminyl glycine and hydroxylamine as substrates in the absence of Ca^2+, forming an iron complex with the resulting hydroxamic acid in the presence of trichloroacetic acid, measuring absorption at 525 nm and determining the amount of hydroxamic acid by a calibration curve to calculate the activity. The BTGase activity is measured by the method described below, unless otherwise indicated.
# To 0.05 ml of an enzyme solution is added 0.5 ml of Reagent A and they are mixed with each other. After reacting at 37° C. for 30 minutes, Reagent B is added thereto to discontinue the reaction and form an Fe complex. Thereafter, absorbance is measured at 525 nm. As a control, absorbance is measured after reacting a previously thermally inactivated enzyme solution in a similar manner and a difference in absorbance between the control and the enzyme solution is measured. Separately, a calibration curve is prepared using L-glutamic acid γ-monohydroxamio acid instead of the enzyme solution, and the amount of hydroxamic acid produced is determined by the difference in absorbance described above. An enzyme activity which produces 1 μmol of hydroxamic acid per 1 minute is defined as 1 unit.
# Rabbit myosin = experiment: Gelation, test tube inversion method; type: biochemical; design: key: .smallcircle.: gelled; Δ: weakly gelled; x: remained as solution; details: BTGase 0.02 U/mg protein, 55° C., 1 h, MTGase 0.1 U/mg, 37° C.
# Method: 2) Rabbit myosin was prepared as follows for use as a substrate for BTGase.
# The concentration of protein was 1.5%. BTGase was added to the myosin under the same conditions as under 1) above to examine gelation ability.
# For purposes of comparison, the results of gelation ability test with MTGase are also shown. The amount of MTGase added was 0.1 U per 1 mg of substrate protein.
molecule,measurement,setting,value
B1,specific activity,[1],2.50 Units/mg protein
same,"Gelation, Rabbit myosin 1.5%",Rabbit myosin,.smallcircle.
